Assay [1] deals with fluoresceinyl-labeled peptide of PLP1. In words: other fluorescence titration; 0.5 µM fluoresceinyl-labeled peptide titrated with recombinant Nef(2-210); compared with a buffer control titration; fit of a simple bimolecular model with ligand depletion.
The target in assay [2] is T1, recombinant HIV-1 SF2 Nef(2-210) protein (HIV-1 isolate SF2, UniProt P03407 2-210).
T1 construct: Nef protein of HIV-1 isolate SF2, residues 2-210; also called purified Nef protein; source: recombinant, purified, prepared as described in [68]
Described as above. Particulars: both partners purified.

Where no end group is shown, it is not given here. The star is where a group is joined. FITC = O=C1OC2(c3ccc(O)cc3Oc3cc(O)ccc32)c2ccc(NC(=S)*)cc21

T1 sequence (P03407 2-210): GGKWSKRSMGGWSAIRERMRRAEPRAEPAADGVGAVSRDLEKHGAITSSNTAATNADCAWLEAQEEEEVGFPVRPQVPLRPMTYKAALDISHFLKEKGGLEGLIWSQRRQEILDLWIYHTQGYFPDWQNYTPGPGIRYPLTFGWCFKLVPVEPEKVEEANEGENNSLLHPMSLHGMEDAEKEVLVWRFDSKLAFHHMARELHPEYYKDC

One may read the Kd as a measure of binding affinity in units of concentration. Consider “recombinant HIV-1 SF2 Nef(2-210) protein (from UniProt P03407 2-210) (natural protein)”, for which, in assay [1], the equilibrium dissociation constant (Kd) came out at 710 nM.

B1: fluoresceinyl-labeled peptide GPM6B(112-127) (peptide, UniProt Q13491-1 112-127, looked up)
peptide: {FITC}-TTSAVKELHGEFKTTA
notes: GPM6B cytoplasmic loop, residues 112-127; numbers count on: UniProtKB entry Q13491-1; also called FITC-labeled GPM6B peptide; source: synthetic peptide
Take B1: in assay [2], the Kd came to 640 ± 60 nM.
